Test results taken from paper PMC11009412, “Pathogenic mutations of human phosphorylation sites affect protein–protein interactions” (Nature Communications, 2024).

Key:
GRB2 = GRB2 (UniProt P62993); experiment: PRISMA peptide-membrane pull-down, SILAC MS; details: reference: unphosphorylated wild-type peptide; sites Y1092
PLCG1 = PLCG1 (UniProt P19174); experiment: PRISMA peptide-membrane pull-down, SILAC MS; details: reference: unphosphorylated wild-type peptide; sites Y1092
STAT3 = STAT3 (UniProt P40763); experiment: PRISMA peptide-membrane pull-down, SILAC MS; details: reference: unphosphorylated wild-type peptide; sites Y1092
[1] = molecular target: 14-3-3 beta/alpha (YWHAB) (UniProt P31946); experiment: PRISMA alanine-scan pull-down, LFQ MS; details: reference: unphosphorylated wild-type peptide; sites S102
14-3-3 epsilon (YWHAE) [2] = molecular target: 14-3-3 epsilon (YWHAE) (UniProt P62258); experiment: PRISMA alanine-scan pull-down, LFQ MS; details: reference: unphosphorylated wild-type peptide; sites S102
14-3-3 eta (YWHAH) = 14-3-3 eta (YWHAH) (UniProt Q04917); experiment: PRISMA alanine-scan pull-down, LFQ MS; details: reference: unphosphorylated wild-type peptide; sites S102
14-3-3 gamma = 14-3-3 gamma (UniProt P61981); experiment: PRISMA alanine-scan pull-down, LFQ MS; details: reference: unphosphorylated wild-type peptide; sites S102
14-3-3 theta (YWHAQ) = 14-3-3 theta (YWHAQ) (UniProt P27348); experiment: PRISMA alanine-scan pull-down, LFQ MS; details: reference: unphosphorylated wild-type peptide; sites S102
14-3-3 zeta (YWHAZ) = 14-3-3 zeta (YWHAZ) (UniProt P63104); experiment: PRISMA alanine-scan pull-down, LFQ MS; details: reference: unphosphorylated wild-type peptide; sites S102
14-3-3 epsilon (YWHAE) [3] = molecular target: 14-3-3 epsilon (YWHAE) (UniProt P62258); experiment: ITC; PEAQ-ITC, 18 °C, 400 µM peptide in the syringe, 25 µM 14-3-3ε in the reaction chamber; 20 mM HEPES pH 7.0, 150 mM NaCl, 2 mM DTT

## EGFR (from UniProt P00533) pTyr1092 peptide
GRB2
  other: SILAC ratio phos/wt: > 20
PLCG1
  binding against the reference: stronger
STAT3
  binding against the reference: stronger

## GATAD1 (from UniProt Q8WUU5) pS102 peptide
[1]
  binding against the reference: stronger
14-3-3 epsilon (YWHAE) [2]
  binding against the reference: stronger
14-3-3 eta (YWHAH)
  binding against the reference: stronger
14-3-3 gamma
  binding against the reference: stronger
14-3-3 theta (YWHAQ)
  binding against the reference: stronger
14-3-3 zeta (YWHAZ)
  binding against the reference: stronger

## GATAD1 phosphopeptide 95-LRNTKYKpSAPAAEKK-109
14-3-3 epsilon (YWHAE) [3]
  Kd: 3.4 µM
